Measurements taken from paper PMC7807754, “A novel protein encoded by circular SMO RNA is essential for Hedgehog signaling activation and glioblastoma tumorigenicity” (Genome Biology, 2021).

Target: T1, 6xHis-SMO (human, UniProt Q99835 28-787)
T1 construct: smoothened (SMO), human; The plasmid for the 6xHis-tagged protein is not described; source: 293T, transfected, purified (HisPur Ni-NTA Purification Kit)
Test: co-IP; in vitro IP with proteins purified from 293T: GFP or GFP-193a.a. incubated with 6xHis-SMO for 4 h at 4 °C, immunoprecipitation overnight at 4 °C, protein A/G agarose, washed with PBST 5 times, western blotting
Details: both partners purified

T1 sequence (Q99835 28-787): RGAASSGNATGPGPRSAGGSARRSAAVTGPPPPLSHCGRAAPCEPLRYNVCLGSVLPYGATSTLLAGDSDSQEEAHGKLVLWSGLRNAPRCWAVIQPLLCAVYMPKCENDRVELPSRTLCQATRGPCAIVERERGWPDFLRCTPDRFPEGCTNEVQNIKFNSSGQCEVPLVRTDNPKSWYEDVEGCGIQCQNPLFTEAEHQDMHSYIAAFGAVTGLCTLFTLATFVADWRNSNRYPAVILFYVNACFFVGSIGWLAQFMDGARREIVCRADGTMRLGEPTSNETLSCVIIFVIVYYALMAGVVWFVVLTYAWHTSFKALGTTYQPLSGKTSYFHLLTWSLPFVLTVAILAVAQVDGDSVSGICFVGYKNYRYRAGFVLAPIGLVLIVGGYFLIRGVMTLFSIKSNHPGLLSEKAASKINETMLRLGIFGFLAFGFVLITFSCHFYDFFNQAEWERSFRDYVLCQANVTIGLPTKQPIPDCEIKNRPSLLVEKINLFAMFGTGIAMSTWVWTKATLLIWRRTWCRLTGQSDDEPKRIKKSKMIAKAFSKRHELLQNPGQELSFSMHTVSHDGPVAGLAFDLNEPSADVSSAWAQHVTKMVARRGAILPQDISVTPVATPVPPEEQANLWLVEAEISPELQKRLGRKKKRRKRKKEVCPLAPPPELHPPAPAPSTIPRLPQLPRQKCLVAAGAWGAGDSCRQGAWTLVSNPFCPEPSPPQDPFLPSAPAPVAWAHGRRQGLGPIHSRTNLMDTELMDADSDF

B1: GFP-SMO-193a.a. (natural protein, human)
chain: MHSYIAAFGAVTGLCTLFTLATFVADWRNSNRYPAVILFYVNACFFVGSIGWLAQFMDGARREIVCRADGTMRLGEPTSNETLSCVIIFVIVYYALMAGVVWFVVLTYAWHTSFKALGTTYQPLSGKTSYFHLLTWSLPFVLTVAILAVAQVDGDSVSGICFVGYKNYRYRAGFVLAPIGLVLIVGGYFLIRE
notes: SMO (smoothened), human, amino acids 230-421; the open reading frame of circ-SMO; extra Glu at the C-terminal, not part of linear SMO; The plasmid for the GFP-tagged protein is not described; source: 293T, transfected, purified (anti-GFP antibody, Catch and Release v2.0 Reversible Immunoprecipitation System)
Q: Does B1 bind?
A: Result: binds
